Results taken from ChEMBL document CHEMBL1122067, “Species- or isozyme-specific enzyme inhibitors. 4. Design of a two-site inhibitor of adenylate kinase with isozyme selectivity” (J Med Chem, 1982).

Experiments:
[1] = compound: CCSc1nc2c(N)ncnc2n1[C@@H]1O[C@H](COP(=O)(O)O)[C@@H](O)[C@H]1O; experiment: Inhibitory constant of rat adenylate kinase (AK II) isozymes expressed as relative maximal velocity
[2] = substrate: CC(=O)NCCNc1ncnc2c1ncn2C1O[C@H](COP(=O)(O)O)[C@@H](O)[C@H]1O; experiment: Rat Adenylate kinase III and maximal velocity was determined
[3] = compound: CCCCN(CCCC)c1ncnc2c1ncn2C1O[C@H](COP(=O)(O)OP(=O)(O)OP(=O)(O)O)[C@@H](O)[C@H]1O; experiment: (§1) Inhibitory constant of rat adenylate kinase (AK III) isozymes expressed as relative maximal velocity
[4] = compound: O=C(CI)NCCCCCNc1ncnc2c1ncn2C1O[C@H](COP(=O)(O)OP(=O)(O)OP(=O)(O)O)[C@@H](O)[C@H]1O; experiment: as §1
[5] = compound: Nc1ncnc2c1ncn2[C@@H]1O[C@H](COP(=O)(O)O)[C@@H](O)[C@H]1O; experiment: as §1
[6] = compound: CCCCNc1ncnc2c1ncn2C1O[C@H](COP(=O)(O)OP(=O)(O)OP(=O)(O)O)[C@@H](O)[C@H]1O; experiment: as §1
[7] = compound: CC(=O)NCCCCCCCCNc1ncnc2c1ncn2C1O[C@H](COP(=O)(O)O)[C@@H](O)[C@H]1O; experiment: as §1
[8] = compound: CCCCSc1ncnc2c1ncn2C1O[C@H](COP(=O)(O)OP(=O)(O)OP(=O)(O)O)[C@@H](O)[C@H]1O; experiment: as §1
[9] = substrate: O=C(CI)NCCCCCNc1ncnc2c1ncn2C1O[C@H](COP(=O)(O)OP(=O)(O)OP(=O)(O)O)[C@@H](O)[C@H]1O; experiment: (§2) Concentration for half-maximal velocity for adenylate kinase (AK III) was determined
[10] = substrate: Nc1ncnc2c1ncn2[C@@H]1O[C@H](COP(=O)(O)O)[C@@H](O)[C@H]1O; experiment: as §2
[11] = substrate: CCCCNc1ncnc2c1ncn2C1O[C@H](COP(=O)(O)OP(=O)(O)OP(=O)(O)O)[C@@H](O)[C@H]1O; experiment: as §2
[12] = substrate: CCCCSc1ncnc2c1ncn2C1O[C@H](COP(=O)(O)OP(=O)(O)OP(=O)(O)O)[C@@H](O)[C@H]1O; experiment: as §2

B1: GTP:AMP phosphotransferase AK3, mitochondrial (Rattus norvegicus), P29411 (protein)
chain: MGASGRLLRAVIMGAPGSGKGTGSSRITKHFELKHLSSGDLLRQNMLQGTEIAVLAKSFIDQGKLIPDDDMTRLALHELKNLTQCSWLLDGFPRTLPQAEALDRVYQIDTVINLNVPFEVIKLRLTARWIHPASGRVYNIEFNPPKTVGIDDLTGEPLIQREDDKPETVIKRLKAYEAQTEPVLQYYQKKGVLETFSGTETNKIRPHVYSFLQMKVPETIQKASVTP
Vmax [1]: 0%
Vmax [2]: 0%
Vmax [3]: 0%
Vmax [4]: 9%
Vmax [5]: 100%
Vmax [6]: 25%
Vmax [7]: 0%
Vmax [8]: 57%
Km [9]: 400 µM
Km [10]: 90 µM
Km [11]: 1200 µM
Km [12]: 1450 µM
